Here are results for 17 substances from the supplement of paper PMC5998384.

Series [1] has as its system HeLa Kyoto. The series is described as follows: solubility in G1/S (NP-40 vs SDS abundance) (log2 ratio); higher = more soluble. Particulars: cell cycle stage: G1/S.
Series [2] concerns HeLa Kyoto. As to the kind of experiment: solubility change mitosis vs G1/S (difference of NP-40 vs SDS log2 ratios) (log2 ratio difference); higher = more soluble in mitosis.
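Wherever solubility change mitosis vs G1/S (difference of NP-40 vs SDS log2 ratios) is given: synchronized HeLa Kyoto cells (double thymidine block for G1/S, nocodazole release for mitosis), protein amounts in NP-40 versus SDS lysates quantified by mass spectrometry, three biological replicates.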
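Wherever solubility in G1/S (NP-40 vs SDS abundance) is given: HeLa Kyoto cells arrested at G1/S by double thymidine block, proteins quantified by TMT10plex mass spectrometry in mild NP-40 versus SDS extracts, three biological replicates.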

KCT2, sequence (chain, as listed by the source): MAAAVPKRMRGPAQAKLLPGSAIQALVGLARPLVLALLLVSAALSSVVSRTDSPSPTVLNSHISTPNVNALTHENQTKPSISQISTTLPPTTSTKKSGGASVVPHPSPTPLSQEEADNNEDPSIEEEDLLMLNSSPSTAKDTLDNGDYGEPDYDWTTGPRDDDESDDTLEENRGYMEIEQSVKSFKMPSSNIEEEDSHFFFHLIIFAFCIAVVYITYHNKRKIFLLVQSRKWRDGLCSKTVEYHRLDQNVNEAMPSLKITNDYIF
DNLZ, sequence (chain, as listed by the source): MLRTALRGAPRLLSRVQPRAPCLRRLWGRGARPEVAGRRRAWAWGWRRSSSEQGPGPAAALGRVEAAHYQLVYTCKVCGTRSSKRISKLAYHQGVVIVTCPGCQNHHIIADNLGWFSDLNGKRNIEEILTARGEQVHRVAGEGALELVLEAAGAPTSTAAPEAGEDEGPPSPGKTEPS

“MFQASMRSPNMEPFKQQKVEDFYDIGEELGSGQFAIVKKCREKSTGLEYAAKFIKKRQSRASRRGVSREEIEREVSILRQVLHHNVITLHDVYENRTDVVLILELVSGGELFDFLAQKESLSEEEATSFIKQILDGVNYLHTKKIAHFDLKPENIMLLDKNIPIPHIKLIDFGLAHEIEDGVEFKNIFGTPEFVAPEIVNYEPLGLEADMWSIGVITYILLSGASPFLGDTKQETLANITAVSYDFDEEFFSQTSELAKDFIRKLLVKETRKRLTIQEALRHPWITPVDNQQAMVRRESVVNLENFRKQYVRRRWKLSFSIVSLCNHLTRSLMKKVHLRPDEDLRNCESDTEEDIARRKALHPRRRSSTS [DAPK2]”: the “solubility in G1/S (log2)” value in the series on HeLa Kyoto [1] was found to be 0.203. Also, the “solubility change mitosis (log2)” value in the series on HeLa Kyoto [2] was -0.115.
Taken in the same sequence, the figures for “MSWIPFKIGQPKKQIVPKTVERDFEREYGKLQQLEEQTRRLQKDMKKSTDADLAMSKSAVKISLDLLSNPLCEQDQDLLNMVTALDTAMKRMDAFNQEKVNQIQKTVIEPLKKFGSVFPSLNMAVKRREQALQDYRRLQAKVEKYEEKEKTGPVLAKLHQAREELRPVREDFEAKNRQLLEEMPRFYGSRLDYFQPSFESLIRAQVVYYSEMHKIFGDLSHQLDQPGHSDEQRERENEAKLSELRALSIVADD [BIN3]” were 0.418 and 0.0471.
On to “MAPVRRSAKWRPGGIEARGEGVSTVGYRNKNVRQKTWRPNHPQAFVGSVREGQGFAFRRKLKIQQSYKKLLRKEKKAQTSLESQFTDRYPDNLKHLYLAEEERHRKQARKVDHPLSEQVHQPLLEEQCSIDEPLFEDQCSFDQPQPEEQCIKTVNSFTIPKKNKKKTSNQKAQEEYEQIQAKRAAKKQEFERRKQEREEAQRQYKKKKMEVFKILNKKTKKGQPNLNVQMEYLLQKIQEKC [CCDC59]”, for which the “solubility in G1/S (log2)” value in the series with HeLa Kyoto [1] is -0.512. Further, the “solubility change mitosis (log2)” value in the series on HeLa Kyoto [2] worked out at 0.278.
Taken in the same sequence, the figures for “MALVRALVCCLLTAWHCRSGLGLPVAPAGGRNPPPAIGQFWHVTDLHLDPTYHITDDHTKVCASSKGANASNPGPFGDVLCDSPYQLILSAFDFIKNSGQEASFMIWTGDSPPHVPVPELSTDTVINVITNMTTTIQSLFPNLQVFPALGNHDYWPQDQLPVVTSKVYNAVANLWKPWLDEEAISTLRKGGFYSQKVTTNPNLRIISLNTNLYYGPNIMTLNKTDPANQFEWLESTLNNSQQNKEKVYIIAHVPVGYLPSSQNITAMREYYNEKLIDIFQKYSDVIAGQFYGHTHRDSIMVLSDKKGSPVNSLFVAPAVTPVKSVLEKQTNNPGIRLFQYDPRDYKLLDMLQYYLNLTEANLKGESIWKLEYILTQTYDIEDLQPESLYGLAKQFTILDSKQFIKYYNYFFVSYDSSVTCDKTCKAFQICAIMNLDNISYADCLKQLYIKHNY [SMPDL3A]” were 0.322 and 0.18.
“MARTLEPLAKKIFKGVLVAELVGVFGAYFLFSKMHTSQDFRQTMSKKYPFILEVYYKSTEKSGMYGIRELDQKTWLNSKN [CEBPZOS]”: the “solubility in G1/S (log2)” value in the series with HeLa Kyoto [1] was -0.306. Further, the “solubility change mitosis (log2)” value with HeLa Kyoto [2] is -0.012.
On to CROCC, for which the “solubility in G1/S (log2)” value with HeLa Kyoto [1] was 0.091. Also, in the series on HeLa Kyoto [2], the “solubility change mitosis (log2)” value is -0.109.
On the same counts, the results for DNLZ are -0.145 and 0.242.
Taken in the same sequence, the figures for “MPYVDRQNRICGFLDIEEHENSGKFLRRYFILDTQANCLLWYMDNPQNLAMGAGAVGALQLTYISKVSIATPKQKPKTPFCFVINALSQRYFLQANDQKDMKDWVEALNQASKITVPKGGGLPMTTEVLKSLAAPPALEKKPQVAYKTEIIGGVVVHTPISQNGGDGQEGSEPGSHTILRRSQSYIPTSGCRASTGPPLIKSGYCVKQGNVRKSWKRRFFALDDFTICYFKCEQDREPLRTIFLKDVLKTHECLVKSGDLLMRDNLFEIITSSRTFYVQADSPEDMHSWIKEIGAAVQALKCHPRETSFSRSISLTRPGSSSLSSGPNSILCRGRPPLEEKKALCKAPSVASSWQPWTPVPQAGEKLLPPGDTSEDSLFTPRPGEGSAPGVLPSSRIRHRSEPQHPKEKPFMFNLDDENIRTSDV [PLEKHA2]” were 0.121 and -0.19.
Take CHD2: the “solubility in G1/S (log2)” value with HeLa Kyoto [1] was -1.9. The “solubility change mitosis (log2)” value in the series on HeLa Kyoto [2] is 0.389.
On the same counts, the results for “MARLTKRRQADTKAIQHLWAAIEIIRNQKQIANIDRITKYMSRVHGMHPKETTRQLSLAVKDGLIVETLTVGCKGSKAGIEQEGYWLPGDEIDWETENHDWYCFECHLPGEVLICDLCFRVYHSKCLSDEFRLRDSSSPWQCPVCRSIKKKNTNKQEMGTYLRFIVSRMKERAIDLNKKGKDNKHPMYRRLVHSAVDVPTIQEKVNEGKYRSYEEFKADAQLLLHNTVIFYGADSEQADIARMLYKDTCHELDELQLCKNCFYLSNARPDNWFCYPCIPNHELVWAKMKGFGFWPAKVMQKEDNQVDVRFFGHHHQRAWIPSENIQDITVNIHRLHVKRSMGWKKACDELELHQRFLREGRFWKSKNEDRGEEEAESSISSTSNEQLKVTQEPRAKKGRRNQSVEPKKEEPEPETEAVSSSQEIPTMPQPIEKVSVSTQTKKLSASSPRMLHRSTQTTNDGVCQSMCHDKYTKIFNDFKDRMKSDHKRETERVVREALEKLRSEMEEEKRQAVNKAVANMQGEMDRKCKQVKEKCKEEFVEEIKKLATQHKQLISQTKKKQWCYNCEEEAMYHCCWNTSYCSIKCQQEHWHAEHKRTCRRKR [ZMYND11]” are -2.1 and 0.83.
On to “MKFVYKEEHPFEKRRSEGEKIRKKYPDRVPVIVEKAPKARIGDLDKKKYLVPSDLTVGQFYFLIRKRIHLRAEDALFFFVNNVIPPTSATMGQLYQEHHEEDFFLYIAYSDESVYGL [GABARAP]”, for which the “solubility in G1/S (log2)” value in the series on HeLa Kyoto [1] stood at 0.16. Moreover, the “solubility change mitosis (log2)” value in the series with HeLa Kyoto [2] was -0.0822.
On the same counts, the results for “MSWLLFLAHRVALAALPCRRGSRGFGMFYAVRRGRKTGVFLTWNECRAQVDRFPAARFKKFATEDEAWAFVRKSASPEVSEGHENQHGQESEAKASKRLREPLDGDGHESAEPYAKHMKPSVEPAPPVSRDTFSYMGDFVVVYTDGCCSSNGRRRPRAGIGVYWGPGHPLNVGIRLPGRQTNQRAEIHAACKAIEQAKTQNINKLVLYTDSMFTINGITNWVQGWKKNGWKTSAGKEVINKEDFVALERLTQGMDIQWMHVPGHSGFIGNEEADRLAREGAKQSED [RNASEH1]” are 0.274 and -0.0935.
On to TET2, for which, in the series on HeLa Kyoto [1], the “solubility in G1/S (log2)” value stood at 0.155. Also, in the series on HeLa Kyoto [2], the “solubility change mitosis (log2)” value was -0.257.
On the same counts, the results for “MPVERMRMRPWLEEQINSNTIPGLKWLNKEKKIFQIPWMHAARHGWDVEKDAPLFRNWAIHTGKHQPGVDKPDPKTWKANFRCAMNSLPDIEEVKDKSIKKGNNAFRVYRMLPLSERPSKKGKKPKTEKEDKVKHIKQEPVESSLGLSNGVSDLSPEYAVLTSTIKNEVDSTVNIIVVGQSHLDSNIENQEIVTNPPDICQVVEVTTESDEQPVSMSELYPLQISPVSSYAESETTDSVPSDEESAEGRPHWRKRNIEGKQYLSNMGTRGSYLLPGMASFVTSNKPDLQVTIKEESNPVPYNSSWPPFQDLPLSSSMTPASSSSRPDRETRASVIKKTSDITQARVKSC [IRF2]” are 0.0934 and 0.0622.
As to KCT2, in the series on HeLa Kyoto [1], the “solubility in G1/S (log2)” value stood at 0.0557. The “solubility change mitosis (log2)” value in the series with HeLa Kyoto [2] is -0.29.
For “MASKRKSTTPCMIPVKTVVLQDASMEAQPAETLPEGPQQDLPPEASAASSEAAQNPSSTDGSTLANGHRSTLDGYLYSCKYCDFRSHDMTQFVGHMNSEHTDFNKDPTFVCSGCSFLAKTPEGLSLHNATCHSGEASFVWNVAKPDNHVVVEQSIPESTSTPDLAGEPSAEGADGQAEIIITKTPIMKIMKGKAEAKKIHTLKENVPSQPVGEALPKLSTGEMEVREGDHSFINGAVPVSQASASSAKNPHAANGPLIGTVPVLPAGIAQFLSLQQQPPVHAQHHVHQPLPTAKALPKVMIPLSSIPTYNAAMDSNSFLKNSFHKFPYPTKAELCYLTVVTKYPEEQLKIWFTAQRLKQGISWSPEEIEDARKKMFNTVIQSVPQPTITVLNTPLVASAGNVQHLIQAALPGHVVGQPEGTGGGLLVTQPLMANGLQATSSPLPLTVTSVPKQPGVAPINTVCSNTTSAVKVVNAAQSLLTACPSITSQAFLDASIYKNKKSHEQLSALKGSFCRNQFPGQSEVEHLTKVTGLSTREVRKWFSDRRYHCRNLKGSRAMIPGDHSSIIIDSVPEVSFSPSSKVPEVTCIPTTATLATHPSAKRQSWHQTPDFTPTKYKERAPEQLRALESSFAQNPLPLDEELDRLRSETKMTRREIDSWFSERRKKVNAEETKKAEENASQEEEEAAEDEGGEEDLASELRVSGENGSLEMPSSHILAERKVSPIKINLKNLRVTEANGRNEIPGLGACDPEDDESNKLAEQLPGKVSCKKTAQQRHLLRQLFVQTQWPSNQDYDSIMAQTGLPRPEVVRWFGDSRYALKNGQLKWYEDYKRGNFPPGLLVIAPGNRELLQDYYMTHKMLYEEDLQNLCDKTQMSSQQVKQWFAEKMGEETRAVADTGSEDQGPGTGELTAVHKGMGDTYSEVSENSESWEPRVPEASSEPFDTSSPQAGRQLETD [ZHX3]”, in the series with HeLa Kyoto [1], the “solubility in G1/S (log2)” value came to 0.105. Besides, the “solubility change mitosis (log2)” value in the series on HeLa Kyoto [2] is -0.0607.
With “MAAIAASEVLVDSAEEGSLAAAAELAAQKREQRLRKFRELHLMRNEARKLNHQEVVEEDKRLKLPANWEAKKARLEWELKEEEKKKECAARGEDYEKVKLLEISAEDAERWERKKKRKNPDLGFSDYAAAQLRQYHRLTKQIKPDMETYERLREKHGEEFFPTSNSLLHGTHVPSTEEIDRMVIDLEKQIEKRDKYSRRRPYNDDADIDYINERNAKFNKKAERFYGKYTAEIKQNLERGTAV [SYF2]”, in the series on HeLa Kyoto [1], the “solubility in G1/S (log2)” value came out at 0.12. The “solubility change mitosis (log2)” value with HeLa Kyoto [2] was 0.188.
